# Reference: patent US20210269521A1 (L AND L BIOPHARMA, published 2021)
# B1: bispecific antibody LB1412 (bispecific antibody, human IgG4 S228P, kappa)
# light: EIVLTQSPATLSLSPGERATLSCRASKGVSTSGYSYLHWYQQKPGQAPRLLIYLASYLESGVPARFSGSGSGTDFTLTISSLEPEDFAVYYCQHSRDLPLTFGGGTKVEIKRTVAAPSVFIFPPSDEQLKSGTASVVCLLNNFYPREAKVQWKVDNALQSGNSQESVTEQDSKDSTYSLSSTLTLSKADYEKHKVYACEVTHQGLSSPVTKSFNRGEC
# heavy: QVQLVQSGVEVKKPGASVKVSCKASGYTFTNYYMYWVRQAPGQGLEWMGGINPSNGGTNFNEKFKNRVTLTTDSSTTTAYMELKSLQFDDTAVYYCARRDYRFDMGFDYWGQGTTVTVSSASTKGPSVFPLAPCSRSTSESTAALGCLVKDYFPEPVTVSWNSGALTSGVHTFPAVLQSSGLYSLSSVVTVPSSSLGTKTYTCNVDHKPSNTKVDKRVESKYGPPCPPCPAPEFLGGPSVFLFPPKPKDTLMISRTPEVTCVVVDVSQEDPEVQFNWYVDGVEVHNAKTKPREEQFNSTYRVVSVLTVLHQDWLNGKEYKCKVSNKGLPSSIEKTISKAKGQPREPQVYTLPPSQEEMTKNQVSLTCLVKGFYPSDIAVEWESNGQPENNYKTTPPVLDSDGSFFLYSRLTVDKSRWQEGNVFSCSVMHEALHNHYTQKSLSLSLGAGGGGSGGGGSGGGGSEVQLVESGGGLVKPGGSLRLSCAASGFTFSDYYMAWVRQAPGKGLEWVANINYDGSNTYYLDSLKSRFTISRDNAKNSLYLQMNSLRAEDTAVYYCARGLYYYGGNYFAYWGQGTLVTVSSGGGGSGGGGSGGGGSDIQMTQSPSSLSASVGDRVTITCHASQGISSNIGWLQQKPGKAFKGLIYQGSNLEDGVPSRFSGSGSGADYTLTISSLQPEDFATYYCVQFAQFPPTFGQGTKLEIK
# B2: bispecific antibody LB1413 (bispecific antibody, human IgG4 S228P, kappa)
# light: DIQMTQSPSSLSASVGDRVTITCHASQGISSNIGWLQQKPGKAFKGLIYQGSNLEDGVPSRFSGSGSGADYTLTISSLQPEDFATYYCVQFAQFPPTFGQGTKLEIKGGGGSGGGGSGGGGSEVQLVESGGGLVKPGGSLRLSCAASGFTFSDYYMAWVRQAPGKGLEWVANINYDGSNTYYLDSLKSRFTISRDNAKNSLYLQMNSLRAEDTAVYYCARGLYYYGGNYFAYWGQGTLVTVSSGGGGSGGGGSGGGGSEIVLTQSPATLSLSPGERATLSCRASKGVSTSGYSYLHWYQQKPGQAPRLLIYLASYLESGVPARFSGSGSGTDFTLTISSLEPEDFAVYYCQHSRDLPLTFGGGTKVEIKRTVAAPSVFIFPPSDEQLKSGTASVVCLLNNFYPREAKVQWKVDNALQSGNSQESVTEQDSKDSTYSLSSTLTLSKADYEKHKVYACEVTHQGLSSPVTKSFNRGEC
# heavy: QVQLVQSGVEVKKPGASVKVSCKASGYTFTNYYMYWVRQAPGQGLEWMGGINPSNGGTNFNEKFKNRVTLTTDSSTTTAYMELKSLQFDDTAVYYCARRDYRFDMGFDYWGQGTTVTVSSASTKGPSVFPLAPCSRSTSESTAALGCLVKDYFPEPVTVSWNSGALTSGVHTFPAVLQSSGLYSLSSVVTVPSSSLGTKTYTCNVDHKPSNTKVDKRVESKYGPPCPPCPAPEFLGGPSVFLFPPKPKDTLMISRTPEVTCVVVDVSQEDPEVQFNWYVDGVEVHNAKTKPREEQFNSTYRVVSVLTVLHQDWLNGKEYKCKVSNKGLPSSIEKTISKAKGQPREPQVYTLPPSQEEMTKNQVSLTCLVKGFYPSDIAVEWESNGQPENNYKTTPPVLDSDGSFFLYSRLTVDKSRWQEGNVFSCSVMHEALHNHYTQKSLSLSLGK
# notes: ab6VL-(G4S)3-ab6VH-(G4S)3-PemVL-κ with PemVH-hIgG4
# B3: bispecific antibody LB241 (bispecific antibody, human IgG4 S228P, kappa)
# light: B2 light
# heavy: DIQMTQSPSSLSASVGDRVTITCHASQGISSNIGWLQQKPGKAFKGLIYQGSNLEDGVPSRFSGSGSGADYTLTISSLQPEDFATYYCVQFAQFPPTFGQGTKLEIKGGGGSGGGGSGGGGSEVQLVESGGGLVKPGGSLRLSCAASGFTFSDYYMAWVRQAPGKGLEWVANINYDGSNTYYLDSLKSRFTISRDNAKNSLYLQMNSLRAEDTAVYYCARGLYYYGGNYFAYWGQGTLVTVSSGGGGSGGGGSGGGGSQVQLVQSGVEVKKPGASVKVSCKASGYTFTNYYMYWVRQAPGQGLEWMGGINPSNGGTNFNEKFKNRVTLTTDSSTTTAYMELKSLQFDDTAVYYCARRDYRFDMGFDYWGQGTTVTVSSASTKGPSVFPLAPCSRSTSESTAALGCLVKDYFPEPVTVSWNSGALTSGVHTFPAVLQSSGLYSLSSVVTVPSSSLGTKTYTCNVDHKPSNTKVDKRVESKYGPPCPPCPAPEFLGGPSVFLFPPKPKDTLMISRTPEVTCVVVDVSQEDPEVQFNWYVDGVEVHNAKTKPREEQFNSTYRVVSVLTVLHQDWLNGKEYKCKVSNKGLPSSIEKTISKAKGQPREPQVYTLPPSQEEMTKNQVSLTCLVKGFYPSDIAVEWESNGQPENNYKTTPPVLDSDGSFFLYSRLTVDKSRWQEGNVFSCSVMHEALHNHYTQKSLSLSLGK
# B4: bispecific antibody LB244 (bispecific antibody, human IgG4 S228P, kappa)
# light: B2 light
# heavy: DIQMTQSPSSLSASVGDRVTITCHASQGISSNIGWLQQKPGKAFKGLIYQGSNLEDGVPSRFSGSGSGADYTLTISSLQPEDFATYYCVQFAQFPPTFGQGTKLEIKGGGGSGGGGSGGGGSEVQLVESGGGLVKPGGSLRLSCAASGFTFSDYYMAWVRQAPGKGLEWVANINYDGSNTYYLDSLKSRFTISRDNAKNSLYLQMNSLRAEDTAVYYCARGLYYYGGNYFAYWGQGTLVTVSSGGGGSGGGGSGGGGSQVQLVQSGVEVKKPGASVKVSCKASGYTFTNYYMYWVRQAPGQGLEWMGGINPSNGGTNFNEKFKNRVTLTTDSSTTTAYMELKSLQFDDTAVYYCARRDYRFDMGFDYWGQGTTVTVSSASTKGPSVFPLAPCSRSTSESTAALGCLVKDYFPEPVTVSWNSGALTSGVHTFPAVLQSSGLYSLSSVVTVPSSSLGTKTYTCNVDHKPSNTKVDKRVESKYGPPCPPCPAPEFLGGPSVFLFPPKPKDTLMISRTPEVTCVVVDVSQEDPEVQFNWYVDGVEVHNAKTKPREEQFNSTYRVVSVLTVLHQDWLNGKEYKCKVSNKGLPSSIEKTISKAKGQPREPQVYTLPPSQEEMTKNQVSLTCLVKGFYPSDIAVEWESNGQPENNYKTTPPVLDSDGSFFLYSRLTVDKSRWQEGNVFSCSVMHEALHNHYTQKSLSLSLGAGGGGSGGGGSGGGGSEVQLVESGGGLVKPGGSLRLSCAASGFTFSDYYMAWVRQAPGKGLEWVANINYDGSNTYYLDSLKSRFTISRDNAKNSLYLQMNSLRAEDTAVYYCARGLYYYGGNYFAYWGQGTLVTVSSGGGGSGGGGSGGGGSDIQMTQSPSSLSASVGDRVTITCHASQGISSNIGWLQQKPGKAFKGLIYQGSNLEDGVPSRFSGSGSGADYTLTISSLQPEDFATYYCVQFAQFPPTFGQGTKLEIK
# B5: bispecific antibody LB1414 (bispecific antibody, human IgG4 S228P, kappa)
# light: EIVLTQSPATLSLSPGERATLSCRASKGVSTSGYSYLHWYQQKPGQAPRLLIYLASYLESGVPARFSGSGSGTDFTLTISSLEPEDFAVYYCQHSRDLPLTFGGGTKVEIKRTVAAPSVFIFPPSDEQLKSGTASVVCLLNNFYPREAKVQWKVDNALQSGNSQESVTEQDSKDSTYSLSSTLTLSKADYEKHKVYACEVTHQGLSSPVTKSFNRGECGGGGSGGGGSGGGGSEVQLVESGGGLVKPGGSLRLSCAASGFTFSDYYMAWVRQAPGKGLEWVANINYDGSNTYYLDSLKSRFTISRDNAKNSLYLQMNSLRAEDTAVYYCARGLYYYGGNYFAYWGQGTLVTVSSGGGGSGGGGSGGGGSDIQMTQSPSSLSASVGDRVTITCHASQGISSNIGWLQQKPGKAFKGLIYQGSNLEDGVPSRFSGSGSGADYTLTISSLQPEDFATYYCVQFAQFPPTFGQGTKLEIK
# heavy: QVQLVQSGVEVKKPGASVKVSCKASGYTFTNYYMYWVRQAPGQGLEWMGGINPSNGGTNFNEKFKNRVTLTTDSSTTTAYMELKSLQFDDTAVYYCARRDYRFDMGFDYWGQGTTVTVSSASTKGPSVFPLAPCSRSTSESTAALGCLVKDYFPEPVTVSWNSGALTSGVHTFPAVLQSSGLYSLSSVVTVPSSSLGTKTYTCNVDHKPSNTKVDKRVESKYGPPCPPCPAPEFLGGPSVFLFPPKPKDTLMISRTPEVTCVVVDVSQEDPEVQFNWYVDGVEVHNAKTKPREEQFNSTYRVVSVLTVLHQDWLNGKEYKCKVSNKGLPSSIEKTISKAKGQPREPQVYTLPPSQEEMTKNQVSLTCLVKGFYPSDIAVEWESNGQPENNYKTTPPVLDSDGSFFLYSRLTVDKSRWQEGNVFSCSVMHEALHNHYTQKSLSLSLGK
# B6: bispecific antibody LB245 (bispecific antibody, human IgG4 S228P, kappa)
# light: B5 light
# heavy: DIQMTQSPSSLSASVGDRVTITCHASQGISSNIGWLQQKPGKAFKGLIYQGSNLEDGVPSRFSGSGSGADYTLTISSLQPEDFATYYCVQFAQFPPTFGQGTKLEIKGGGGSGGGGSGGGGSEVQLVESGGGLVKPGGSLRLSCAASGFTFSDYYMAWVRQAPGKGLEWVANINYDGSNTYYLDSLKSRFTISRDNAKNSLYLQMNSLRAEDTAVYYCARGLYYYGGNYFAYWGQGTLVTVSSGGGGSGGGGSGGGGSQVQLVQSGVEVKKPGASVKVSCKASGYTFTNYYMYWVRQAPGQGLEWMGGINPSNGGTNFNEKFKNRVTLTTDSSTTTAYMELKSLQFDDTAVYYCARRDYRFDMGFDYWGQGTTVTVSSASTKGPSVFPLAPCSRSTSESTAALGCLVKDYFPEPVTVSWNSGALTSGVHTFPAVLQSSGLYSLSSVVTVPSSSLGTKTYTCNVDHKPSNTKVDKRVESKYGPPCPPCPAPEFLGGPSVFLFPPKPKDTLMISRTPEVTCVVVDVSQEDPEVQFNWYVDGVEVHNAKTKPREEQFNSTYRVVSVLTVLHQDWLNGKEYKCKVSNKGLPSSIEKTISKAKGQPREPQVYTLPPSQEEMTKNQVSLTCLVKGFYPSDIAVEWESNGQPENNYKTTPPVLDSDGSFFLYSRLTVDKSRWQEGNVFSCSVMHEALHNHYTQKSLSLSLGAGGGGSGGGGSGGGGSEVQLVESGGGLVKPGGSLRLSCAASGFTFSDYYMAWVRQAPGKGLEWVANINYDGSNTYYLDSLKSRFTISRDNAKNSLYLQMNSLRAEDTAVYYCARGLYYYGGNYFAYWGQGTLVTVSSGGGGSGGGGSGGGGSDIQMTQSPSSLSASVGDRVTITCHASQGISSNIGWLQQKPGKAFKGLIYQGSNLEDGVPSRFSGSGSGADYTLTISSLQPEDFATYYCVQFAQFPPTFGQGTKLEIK
# B7: bispecific antibody LB242 (bispecific antibody, human IgG4 S228P, kappa)
# light: B5 light
# heavy: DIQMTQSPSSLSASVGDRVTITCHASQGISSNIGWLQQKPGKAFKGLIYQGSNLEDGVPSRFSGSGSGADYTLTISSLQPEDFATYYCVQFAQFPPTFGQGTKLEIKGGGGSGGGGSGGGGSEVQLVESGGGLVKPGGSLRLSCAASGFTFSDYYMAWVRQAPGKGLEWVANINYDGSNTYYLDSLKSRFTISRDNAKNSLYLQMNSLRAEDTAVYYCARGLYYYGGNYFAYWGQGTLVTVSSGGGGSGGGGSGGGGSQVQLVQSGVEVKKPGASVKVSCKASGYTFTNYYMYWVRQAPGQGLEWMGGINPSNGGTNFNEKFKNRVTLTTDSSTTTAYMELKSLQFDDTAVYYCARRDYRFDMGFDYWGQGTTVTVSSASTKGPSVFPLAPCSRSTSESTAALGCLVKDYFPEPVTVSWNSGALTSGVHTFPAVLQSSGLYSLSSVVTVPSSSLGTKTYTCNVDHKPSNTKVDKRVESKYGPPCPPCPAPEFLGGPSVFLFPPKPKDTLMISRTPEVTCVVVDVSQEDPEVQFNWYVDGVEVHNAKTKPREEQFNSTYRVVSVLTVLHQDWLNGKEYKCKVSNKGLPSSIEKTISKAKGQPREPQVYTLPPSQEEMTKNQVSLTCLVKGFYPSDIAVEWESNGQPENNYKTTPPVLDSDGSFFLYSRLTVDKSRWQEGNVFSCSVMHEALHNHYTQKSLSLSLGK
# B8: bispecific antibody LB243 (bispecific antibody, human IgG4 S228P, kappa)
# light: DIQMTQSPSSLSASVGDRVTITCHASQGISSNIGWLQQKPGKAFKGLIYQGSNLEDGVPSRFSGSGSGADYTLTISSLQPEDFATYYCVQFAQFPPTFGQGTKLEIKGGGGSGGGGSGGGGSEVQLVESGGGLVKPGGSLRLSCAASGFTFSDYYMAWVRQAPGKGLEWVANINYDGSNTYYLDSLKSRFTISRDNAKNSLYLQMNSLRAEDTAVYYCARGLYYYGGNYFAYWGQGTLVTVSSGGGGSGGGGSGGGGSEIVLTQSPATLSLSPGERATLSCRASKGVSTSGYSYLHWYQQKPGQAPRLLIYLASYLESGVPARFSGSGSGTDFTLTISSLEPEDFAVYYCQHSRDLPLTFGGGTKVEIKRTVAAPSVFIFPPSDEQLKSGTASVVCLLNNFYPREAKVQWKVDNALQSGNSQESVTEQDSKDSTYSLSSTLTLSKADYEKHKVYACEVTHQGLSSPVTKSFNRGECGGGGSGGGGSGGGGSEVQLVESGGGLVKPGGSLRLSCAASGFTFSDYYMAWVRQAPGKGLEWVANINYDGSNTYYLDSLKSRFTISRDNAKNSLYLQMNSLRAEDTAVYYCARGLYYYGGNYFAYWGQGTLVTVSSGGGGSGGGGSGGGGSDIQMTQSPSSLSASVGDRVTITCHASQGISSNIGWLQQKPGKAFKGLIYQGSNLEDGVPSRFSGSGSGADYTLTISSLQPEDFATYYCVQFAQFPPTFGQGTKLEIK
# heavy: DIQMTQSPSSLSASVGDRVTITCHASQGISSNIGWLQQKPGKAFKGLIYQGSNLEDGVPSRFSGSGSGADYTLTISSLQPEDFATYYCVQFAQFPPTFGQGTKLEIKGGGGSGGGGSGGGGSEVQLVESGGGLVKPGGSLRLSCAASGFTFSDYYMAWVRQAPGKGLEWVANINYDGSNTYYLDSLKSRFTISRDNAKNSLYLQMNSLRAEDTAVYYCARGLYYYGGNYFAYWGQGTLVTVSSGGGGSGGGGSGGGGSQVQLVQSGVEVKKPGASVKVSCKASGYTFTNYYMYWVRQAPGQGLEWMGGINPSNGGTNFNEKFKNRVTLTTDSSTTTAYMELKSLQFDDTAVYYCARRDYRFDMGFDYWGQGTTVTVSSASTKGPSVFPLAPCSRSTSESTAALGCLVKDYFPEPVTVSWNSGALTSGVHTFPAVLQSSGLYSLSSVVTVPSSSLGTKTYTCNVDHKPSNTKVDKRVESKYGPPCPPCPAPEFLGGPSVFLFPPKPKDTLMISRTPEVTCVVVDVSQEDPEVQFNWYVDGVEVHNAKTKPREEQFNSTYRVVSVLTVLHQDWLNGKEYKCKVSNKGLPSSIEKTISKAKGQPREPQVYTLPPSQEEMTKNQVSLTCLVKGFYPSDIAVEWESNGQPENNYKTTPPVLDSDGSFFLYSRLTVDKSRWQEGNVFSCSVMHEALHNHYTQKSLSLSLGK
# Biological target: T1, human TIM-3 extracellular domain-human IgG1 Fc fusion protein (human, UniProt Q8TDQ0 22-199)
# T1 construct: Made in house or bought (ACROBiosystems TM3-H5258); also called TIM-3-hFc; not shown: human IgG1 Fc
# Assay: ELISA
# Experimental: Goat-anti-hFc (Jackson, 109-005-008) was diluted to a concentration of 1 μg/ml with PBS buffer (pH 7.4) and added to a 96-well microplate (Corning, CLS3590-100EA) at a volume of 50 μl/well, then incubated in an incubator at 37° C. for 2 hours (Or the antigen TIM-3 was directly used to coat the microplate with a concentration of 0.5 μg/ml, and then the antibody to be tested was directly added). After discarding the liquid, a blocking solution of 5% skimmed milk (skimmed milk powder purchased from Bright) diluted with PBS was added at 200 μl per well, and the microplate was incubated for 2.5 hours at 37° C. or overnight (16-18 hours) at 4° C. for blocking. The blocking solution was discarded, and the microplate was washed 5 times with PBST buffer (PBS with pH 7.4 containing 0.05% tween-20), then 50 μl/well of 0.5 μg/ml TIM-3-hFc (Example 1) was added and incubated for 2 hours in a 37° C. incubator. After incubation, the microplate was washed 6 times with PB ST. 50 μl/well of supernatant (containing testing antibody) or different concentrations of the antibody to be tested was added, and the microplate was incubated at 37° C. for 2 hours and washed 5 times with PBST. 50 μl/well of 1:2500 diluted HRP-labeled secondary antibody (Jackson Immuno Research, 115-035-003) was added to the microplate, incubating at 37° C. for 1 hour. After washing the microplate 5 times with PBST, 50 μl/well TMB chromogenic substrate (KPL, 52-00-03) was added to the microplate, followed by incubating at room temperature for 10-15 min.
row,Binder,EC50
1,B1,3.42 nM
2,B2,0.521 nM
3,B3,0.547 nM
4,B4,0.21 nM
5,B5,3.52 nM
6,B6,0.391 nM
7,B7,0.124 nM
8,B8,0.216 nM

# Biological target: T2, human PD-1 extracellular domain protein expressed in Example 1 (tag not stated) (human, UniProt Q15116 25-170)
# T2 construct: extracellular domain; also called PD-1 protein; not shown: human IgG1 Fc or his tag
# Assay: ELISA, PD-1 coated
# Experimental: (§1) PD-1 expressed in Example 1 was diluted to a concentration of 1 μg/ml with PBS buffer, pH 7.4, and added to a 96-well microplate (Corning, CLS3590-100EA) at 50 μl per well, thereby incubating in an incubator at 37° C. for 2 hours. After discarding the liquid, a blocking solution of 5% skimmed milk (Shanghai Shenggong Biological Engineering Co., Ltd., A600669-0250) diluted with PBS was added at 200 μl per well, followed by incubating at 37° C. for 3 hours or 4° C. overnight (16-18 hours)) for blocking. Subsequently, the blocking solution was discarded, and the microplate was washed 5 times with PBST buffer (pH 7.4 PBS containing 0.05% tween-20). […] Subsequently, the microplate was washed 5 times with PBST, then 50 μl/well of 1:2500 diluted HRP-labeled secondary antibody (Jackson Immuno Research, 115-035-003) was added, thereby incubating at 37° C. for 1 hour. After washing the microplate 5 times with PBST, 50 μl/well TMB chromogenic substrate (KPL, 52-00-03) was added, then incubated at room temperature for 5-10 min. Finally, 50 μl/well of 1M H₂SO₄ was added to stop the reaction. […] Go microplate reader (ThermoFisher, 51119200) was used to read the absorption value at 450 nm and the EC50 based on the OD value was calculated.
row,Binder,EC50
1,B1,0.079 nM
2,B2,0.066 nM
3,B3,0.365 nM
4,B4,0.18 nM
5,B5,0.045 nM
6,B6,0.342 nM
7,B7,0.084 nM
8,B8,0.214 nM

# Biological target: T2, human PD-1 extracellular domain protein …
# Assay: ELISA, EC50 of bispecific over EC50 of the monoclonal control
# Experimental: After washing the microplate 5 times with PBST, 50 μl/well TMB chromogenic substrate (KPL, 52-00-03) was added to the microplate, followed by incubating at room temperature for 10-15 min.
# as §1
row,Binder,Multiple of EC50 variation
1,B1,0.82 ratio
2,B2,0.69 ratio
3,B3,3.8 ratio
4,B4,0.68 ratio
5,B5,0.47 ratio
6,B6,1.3 ratio
7,B7,0.32 ratio
8,B8,0.81 ratio

# Biological target: T1, human TIM-3 extracellular domain-human …
# Assay: as above
row,Binder,Multiple of EC50 variation
1,B1,4.37 ratio
2,B2,0.67 ratio
3,B3,0.7 ratio
4,B4,1.32 ratio
5,B5,4.5 ratio
6,B6,2.46 ratio
7,B7,0.78 ratio
8,B8,1.36 ratio
